For assay [1], the target named is T1, recombinant cynomolgus monkey TREM-1 (cynomolgus monkey, UniProt A0A2K5VHG8 21-204).
T1 construct: Soluble recombinant protein injected as SPR analyte; construct not described; also called cTREM-1; cynomolgus TREM-1
T1 sequence: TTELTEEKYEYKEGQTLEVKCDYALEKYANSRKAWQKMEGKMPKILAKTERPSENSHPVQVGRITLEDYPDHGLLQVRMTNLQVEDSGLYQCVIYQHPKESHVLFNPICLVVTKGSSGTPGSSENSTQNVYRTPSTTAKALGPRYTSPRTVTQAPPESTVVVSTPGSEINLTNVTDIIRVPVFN
Kind of assay: SPR, Fab immobilised, cynomolgus TREM-1 injected; average. Here is the method:
(§1) Surface plasmon resonance (SPR): in order to evaluate the interaction kinetics for TREM-1 antibodies or Fabs to hTREM-1 (human TREM-1) and cTREM-1 (cynomolgus monkey TREM-1), surface plasmon resonance (SPR) assays were carried out (Biacore™ T200, GE Healthcare Biosciences). The anti-human Fc antibodies (Cytiva) were immobilized on CM5 sensor chip in order to evaluate IgG1 affinities and Fabs were directly immobilized on the chip. Immobilization experiments were performed at 25° C. using HBS-EP+1× running buffer (10 mM HEPES, 150 mM NaCl, 3 mM EDTA, 0.05% surfactant P20, pH 7.4). The anti-human Fc antibodies or Fabs were diluted in 10 mM sodium acetate at acidic pH before the immobilization procedure using amine coupling on the dextran matrix of the sensor chips. […] Following these injections, ethanolamine was injected to deactivate the surface. The immobilization wizard was used to obtain several thousand of immobilized RU (resonance units). The immobilization level was chosen in order to have a proper covering of the sensor chip surface. […] Binding of hTREM-1 or cTREM-1 proteins was conducted by injecting analyte over all flow cells. […] The concentrations were evaluated using the Single Cycle Kinetics method. This approach consists of a sequential injection of increasing concentration of the analyte, with a single regeneration step using a magnesium chloride buffer (Cytiva) at the end of the cycle. Binding affinity of TREM-1 antibodies or Fabs with hTREM-1 or cTREM-1 was quantified by determination of the equilibrium dissociation constant (KD) determined by measurement of the kinetics of complex formation and dissociation.

The target in assay [2] is T1, recombinant cynomolgus monkey TREM-1. Description: SPR, Fab immobilised, cynomolgus TREM-1 injected; replicate 1. Here is the method:
as §1
For orientation: SPR reads the build-up and loss of mass on a sensor chip optically.

Assay [3] shares this target. Description: SPR, Fab immobilised, cynomolgus TREM-1 injected; replicate 2. Here is the method:
as §1

B1: humanized anti-TREM-1 Fab fragment INO-10F-4 (Fab, V domains shown)
VH: EVQLVESGGALVKPGGSLRLSCAASGFNIGNTYIHWVRQAPGKGLEWVGRIDPAGGRTKYAPKVKGRFTISADDSKNTAYLQMNSLKTEDTAVYYCTGHRGGTMDYWGQGTLVTVSS
VL: EIVLTQSPATLSLSPGERATLSCRASQSVSNYGISFLNWYQQKPGQAPRLLIYAAEYRGRGIPARFSGSGSGTDFTLTISSLEPEDFAVYYCQQSSNVPYTFGQGTKVEIK
notes: Fab
In general, Kd refers to the equilibrium constant for the complex coming apart. Consider B1, for which the dissociation constant Kd in assay [1] was 24.6 nM; in assay [2], 24.8 nM; in assay [3], 24.4 nM.

B2: humanized anti-TREM-1 Fab fragment INO-10F-6 (Fab, V domains shown)
VH: EVQLVESGGALVKPGGSLRLSCAASGFNIGNTYIHWVRQAPGKGLEWVGRIDPAGGRTKYAPKVKGRFTISADDSKNTLYLQMNSLKTEDTAVYYCTGHRGGTMDYWGQGTLVTVSS
VL: EIVLTQSPATLSLSPGERATLSCRASQSVSNYGISFLNWYQQKPGQAPRLLIYAAEYRARGIPARFSGSGSGTDFTLTISSLEPEDFAVYYCQQSSNVPYTFGQGTKVEIK
notes: Fab
Take B2: the Kd worked out at 56.8 nM in assay [1], 60.1 nM in assay [2] and 53.4 nM in assay [3].

B3: humanized anti-TREM-1 Fab fragment INO-10F-2 (Fab, V domains shown)
VH: EVQLVESGGALVKPGGSLRLSCAASGFNIGNTYIHWVRQAPGKGLEWIGRIDPAGGRTKYSPKVQGRFTISAPTSKNTAYLQMNSLKTEDTAVYYCTGHRGGTMDYWGQGTLVTVSS
VL: EIVLTQSPATLSLSPGERATLSCRASQSVSNYGISFLNWYQQKPGQAPRLLIYAASYQKRGIPARFSGSGSGTDFTLTISSLEPEDFAVYYCQQSSNFPWTFGQGTKVEIK
notes: Fab
B3: the Kd in assay [1] stood at 28.3 nM; in assay [3], 28.5 nM.

B4: humanized anti-TREM-1 Fab fragment INO-10F-3 (Fab, V domains shown)
VH: EVQLVESGGALVKPGGSLRLSCAASGFNIDNTYIHWVRQAPGKGLEWIGRIDPAGGRTKYDPKVKGRFTISADTSKNTAYLQMNSLKTEDTAVYYCTGHYGGTMDYWGQGTLVTVSS
VL: EIVLTQSPATLSLSPGERATLSCRASESVDNYGISFLNWYQQKPGQAPRLLIYAAEYRGRGIPARFSGSGSGTDFTLTISSLEPEDFAVYYCQQSRHVPYTFGQGTKVEIK
notes: Fab
Regarding B4, the values for the Kd in assay [1], in assay [2] and in assay [3] were 7.64 nM, 7.6 nM and 7.68 nM, respectively.

B5: anti-hTREM-1 Fab fragment INO-10F (Fab, V domains shown)
VH: AVQLQQSVAALVRPGASVKLSCTASGFNIKNTYIHWVKQRPEQGLEWIGRIDPANGNTKYAPKFQGKATITADTSSDTAYLQLSSLTSDDTAIYYCTGHYGSTMDYWGQGTSVTVSS
VL: not shown
notes: Recombinant chimeric Fab (murine variable regions) made in CHO cells and purified on HisTrap Excel; also called INO-10 Fab
On to B5, for which the Kd in assay [1] is 62.2 nM; in assay [2], 57.9 nM; in assay [3], 66.6 nM.

Source of the values: patent US20240254225A1 (INOTREM, published 2024).
